# Measured values taken from article PMC3268518 (Molecular Cell, 2011).
# T1: co-purified GST-eIF4G1/eIF4E complex (yeast, UniProt P39935 1-952; P07260 1-213)
# T1 sequence (looked up) 1: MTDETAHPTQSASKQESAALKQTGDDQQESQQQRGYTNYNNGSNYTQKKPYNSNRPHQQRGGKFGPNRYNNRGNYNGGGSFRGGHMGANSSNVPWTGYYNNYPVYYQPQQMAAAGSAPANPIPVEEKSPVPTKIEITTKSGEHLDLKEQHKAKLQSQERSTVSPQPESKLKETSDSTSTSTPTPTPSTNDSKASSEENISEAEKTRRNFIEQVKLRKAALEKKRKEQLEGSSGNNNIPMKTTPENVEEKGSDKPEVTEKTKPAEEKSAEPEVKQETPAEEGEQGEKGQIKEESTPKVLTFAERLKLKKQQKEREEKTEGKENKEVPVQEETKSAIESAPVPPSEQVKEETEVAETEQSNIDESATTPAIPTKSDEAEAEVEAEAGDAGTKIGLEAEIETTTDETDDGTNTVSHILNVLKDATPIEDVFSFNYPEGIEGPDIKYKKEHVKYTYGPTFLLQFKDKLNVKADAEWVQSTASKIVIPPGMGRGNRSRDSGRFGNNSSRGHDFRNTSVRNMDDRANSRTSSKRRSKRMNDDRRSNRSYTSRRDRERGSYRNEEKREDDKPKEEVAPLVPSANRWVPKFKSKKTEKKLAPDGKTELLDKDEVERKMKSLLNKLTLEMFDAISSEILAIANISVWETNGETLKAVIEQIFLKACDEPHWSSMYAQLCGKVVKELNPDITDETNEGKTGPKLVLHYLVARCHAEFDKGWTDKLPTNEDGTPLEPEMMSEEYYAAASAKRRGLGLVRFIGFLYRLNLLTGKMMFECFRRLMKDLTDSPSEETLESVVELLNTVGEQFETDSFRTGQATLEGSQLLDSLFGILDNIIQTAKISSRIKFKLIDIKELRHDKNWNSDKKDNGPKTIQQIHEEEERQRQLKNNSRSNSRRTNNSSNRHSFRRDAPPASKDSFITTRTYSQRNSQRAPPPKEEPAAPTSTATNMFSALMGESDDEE
# T1 sequence (looked up) 2: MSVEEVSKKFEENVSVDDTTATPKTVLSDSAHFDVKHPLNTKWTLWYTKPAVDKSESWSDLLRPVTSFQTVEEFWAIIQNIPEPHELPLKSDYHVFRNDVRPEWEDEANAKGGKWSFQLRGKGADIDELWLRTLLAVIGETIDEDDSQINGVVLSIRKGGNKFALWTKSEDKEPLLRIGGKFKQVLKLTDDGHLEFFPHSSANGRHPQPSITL
# Legend:
# [1] = biological target: T1, co-purified GST-eIF4G1/eIF4E complex; assay: pull-down
# [2] = biological target: recombinant wild type Ded1 (yeast, UniProt P06634 1-604); assay: pull-down
binder,measurement,setting,value
"rded1Δ21-27 (enzyme, yeast, UniProt P06634 1-604, looked up) MAELSEQVQNLSINDNNENGGKPRSARNNSSNYNNNNGGYNGGRGGGSFFSNNRRGGYGNGGFFGGNNGGSRSNGRSGGRWIDGKHVPAPRNEKAEIAIFGVPEDPNFQSSGINFDNYDDIPVDASGKDVPEPITEFTSPPLDGLLLENIKLARFTKPTPVQKYSVPIVANGRDLMACAQTGSGKTGGFLFPVLSESFKTGPSPQPESQGSFYQRKAYPTAVIMAPTRELATQIFDEAKKFTYRSWVKACVVYGGSPIGNQLREIERGCDLLVATPGRLNDLLERGKISLANVKYLVLDEADRMLDMGFEPQIRHIVEDCDMTPVGERQTLMFSATFPADIQHLARDFLSDYIFLSVGRVGSTSENITQKVLYVENQDKKSALLDLLSASTDGLTLIFVETKRMADQLTDFLIMQNFRATAIHGDRTQSERERALAAFRSGAATLLVATAVAARGLDIPNVTHVINYDLPSDVDDYVHRIGRTGRAGNTGLATAFFNSENSNIVKGLHEILTEANQEVPSFLKDAMMSAPGSRSNSRRGGFGRNNNRDYRKAGGASAGGWGSSRSRDNSFRGGSGWGSDSKSSGWGNSGGSNNSSWW",binding result,[1],binds
"GST-eIF4G1 fragment eIF4G 883-952 (domain or fragment, yeast, UniProt P39935 883-952, looked up) SNSRRTNNSSNRHSFRRDAPPASKDSFITTRTYSQRNSQRAPPPKEEPAAPTSTATNMFSALMGESDDEE",binding result,[2],binds
